The text below walks through data of patent publication EP4596582A1 (Sichuan Kelun-Biotech Biopharmaceutical Co., Ltd., dated 2025).

Test [1] concerns the target T1, monkey B7-H3 on CHO-S cells (CHO-S-monkey B7-H3) (monkey).
T1 construct: whole, on cells; also called monkey B7-H3-overexpressed cells
In words: flow cytometry on CHO-S-monkey B7-H3 cells. (In general: Flow cytometry measures light scatter and fluorescence of single cells or particles in a stream.)

Test [2] has as its target T2, human B7-H3-4Ig-His protein (human, UniProt Q5ZPR3 29-466).
T2 construct: extracellular domain; Made in HEK293-EBNA cells
T2 sequence: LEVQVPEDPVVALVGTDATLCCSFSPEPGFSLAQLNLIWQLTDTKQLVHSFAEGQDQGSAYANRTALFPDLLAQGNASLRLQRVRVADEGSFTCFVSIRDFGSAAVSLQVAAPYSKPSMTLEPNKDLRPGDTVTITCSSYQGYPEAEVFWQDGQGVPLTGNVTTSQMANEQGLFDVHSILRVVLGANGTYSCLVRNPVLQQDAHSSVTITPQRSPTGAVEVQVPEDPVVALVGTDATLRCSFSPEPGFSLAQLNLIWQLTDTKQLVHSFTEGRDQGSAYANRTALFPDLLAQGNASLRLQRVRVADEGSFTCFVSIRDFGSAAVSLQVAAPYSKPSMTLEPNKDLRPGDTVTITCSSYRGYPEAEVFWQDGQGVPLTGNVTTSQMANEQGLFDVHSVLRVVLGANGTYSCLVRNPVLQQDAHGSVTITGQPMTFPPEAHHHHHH
Nature of the test: ELISA, antigen coated at 1 ug/ml. For orientation: An ELISA detects its analyte on a solid surface through an enzyme-linked reagent.

Test [3] addresses T3, human B7-H2-his (human, UniProt O75144 19-256, limits assumed).
T3 construct: Bought protein; not shown: his tag
T3 sequence (looked up): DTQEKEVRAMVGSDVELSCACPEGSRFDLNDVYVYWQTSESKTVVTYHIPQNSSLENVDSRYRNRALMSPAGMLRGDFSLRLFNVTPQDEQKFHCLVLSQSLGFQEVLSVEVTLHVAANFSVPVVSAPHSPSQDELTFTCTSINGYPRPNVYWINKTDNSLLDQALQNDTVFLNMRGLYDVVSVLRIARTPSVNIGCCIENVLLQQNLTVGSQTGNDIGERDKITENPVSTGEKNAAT
In words: ELISA, antigen coated at 1 ug/ml.

Usually EC50 stands for the concentration giving half of the maximal effect.

B1: anti-human-B7-H3 human antibody 2#8890 (antibody, human IgG1, kappa, V domains shown)
VH: QVQLQESGPGLVQPSGTLSLTCAVSGGSDSSTNWWTWVRQSPGQGLEWIGEISPIGFTSYSPSLRSRVTISVDKSKTQFSLKLSSVTAADTAVYYCARDRLYFAFWGQGTLVTVSS
VL: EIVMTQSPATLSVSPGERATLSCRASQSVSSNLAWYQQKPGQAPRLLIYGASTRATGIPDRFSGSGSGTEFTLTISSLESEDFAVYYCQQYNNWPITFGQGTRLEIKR
Turning to B1, the half-maximal effective concentration (EC50) in test [1] turned out to be 0.0649 µg/mL; in test [2], 0.00193 µg/mL. Also, the binding result in test [3] is “no binding (tested: 10 ug/ml highest concentration)”.
